Laboratory results taken from the DeepSol protein solubility set.

Experiment: soluble on expression in E. coli; label from the status in PepcDB or PDB records

Row | Sequence | soluble on expression in E. coli
1 | AHHHHHHGSYLEEKDGIKFYSLNKLEKEGFDVHSLPYSLRILAENILRHLNNGVVSYEHIENIFERKGDIPFYPARIIMQDYTGVPAIVDLAAMRDYIKEKGKDPSRVNPKIPVELVVDHSLIVLYHGTKYSLYENMKEELKANRERYSLLKWASKAFENLKIIPPGKGIIHQINVEHLARIVFLEEGIAYPDTVLGTDSHTPMVNGIGVLGWGVGGIEAEAALLGLPYFMKVPEVVGVVLEGEPSPEITPTDIVLTITEKLRKVGVVGKFLEYTGNVEALSAFDRTVIANMTPENGATVGYFPIDEETIKFIRLTRGESKAKLVEKYAKLNMLYREETPEFDKTVKIDLSKVEPSVAGPFHPEDRIRLKDLKNSFKVEKKTKIRINGGEVEIEDGIIGLAAIASCTNTSNPYNILAAALVAKKAVELGLRTKPWVKTTFTPGSRVVVKYLEKLGLLSYLEALGFHVNGYACASCIGNSGPLKREVEEVIDKGIKVAAVISGNRNFRRRVNSKIDYTYLASPPLVVVFAIAGKITIDPSEPLAYDPNGKPVYLTDILPTKEEVKKLEEVIGEELYKEAYSSLFEDSIWKDIETEESPLFKWDEKSTYVRKPPFFDLTPITDDIKGARALIVLGDRISTDDISPAGKIDPESPAGRYLLSLGVKPEELHTYGARRGNHEVMMRGTFARFKMIYWPTGEEMSVYEAAMRYKERGIPLIIIAGKQYGVGSSRDWAAKGPALLGVKAVIAESFERIHRSNLVGMGIVPLQFKDPEVRKRLTGEEVYDIIGLKDLYPGKTIKVIARKPNGEVIEFETIARVETPIEVEYIRHGGILKYALELLG | not soluble
2 | AIAAQEENKRLVVVVPNEMTVPSRRAFTSEDEAWKSYLENPLTAATKAMMSINGDEDSVAALGILYDYYKVPKEKRLLPVHKLPEDHEKSRISQDGLESAENRIHVLKSLPVNLSLNPDSENKQDLFGTVPAEDGVVATVKPEVYAQSFSSHHQQLHYHRTPYHPHLQDSVSVSHDRYMKDDQCSTPDSTFEDSYPEDPMRYRVPTTPAAEDFTHEQAGLNMFQYNIEASRSVREKAADGPMVYLNKGQFYGITLSETGANKGLRHPISKVRTVVMVVFGQEKCRDEQLKHWNYWHTRQHTAKQRVLDIADYKESFNTIGNIEEIAYNAVSFTWDPAAVHKSFCASVILL | soluble
3 | AIACHTQVGGSMQVPEPRRPFTCSSENNVTNSFFEEAYSASFRSKLYNMVEEIEQERAKYCNSANLSYMDAFGVEKESIEEDYNKEEDRDSLCSVDIADNSETSNRSSEDLLCDNCSKSLMFLNNVFKWNDLLFCNLDCYTSAILKNQKGADVKHRVACSLSPTWHKDCVHSVQD | soluble
4 | AIADTGELHDLTVKGAVVTQLERCEVACQRLFQNLALLGLELQNSESITEGVCDSKAASDLGSSVELLENEERALRLCVDRFVLELRQVENLAKTLDGIREEEERILSLEQRSIEQAERCFYLWNDAREMLRGTRLTSIKEVLESAARYPRIPSWTPLPTSN | soluble
5 | AIADYSNTYGAYGGGGFLPESPARTGGNASTRFGVGSGSSLRDQRRSLLPVRVADLVHAVHDPVTNTFVLRDENEHQSITISEGSIVKVVAYVEELREQPLDLLWLLDDRSGEMIWARMASTSSSSLAALEQSGILVRVFGQLLEVDGRRVLNVRAIRKADGEVELRYHENLCQLSKLQLIRGYPTAGNALAGASSSPASPKAGPSKAVHRSSLGSGAPKEMAQQAPGLEIPAAFPPEHFKVLKCIREETARNRDAMLTDIAQRIALSTTKVRGICDALQNEGHIYCTLDDDTFRASSS | soluble
6 | AIAEAKTLGIATPRKPVLSVSARKLKDNAADWHNLILKWDSLSDKGFTTASSIANLKVSLLSKEKVELESSSPASMEEEEKTNLDYDKGLEALCEELQAILDGLTKIQMKMEKLSSTTKGICELENYHYREESSRPPLFHTWPTAFFYEVSRRLSEAYKKELLLKHTIGAELAHTADRNLSLTYLSMWLHQPYIESNSKLQLESMLLETGHRAL | soluble
7 | AIAEEDEFIGEKTFQRYCAEFIKHSQQIGDSWEWRPSKDCSDGYMCKIHFQIKNGSVMSHLGASTHGQTCLPMEEAFELPLDDCEVIETAAASEVIKYEYHVLYSCSYQVPVLYFRASFLDGRPLTLKDIWEGVHECYKMRLLQGPWDTITQQEHPILGQPFFVLHPCKTNEFMTPVLKNSQKINKNVNYITSWLSIVGPVVGLNLPLSYAKATSQDERNVP | soluble
8 | AIAFQPVTQKRLTNVSVVRMRKGGKRFEIACYPNMVMAYREGHVRDLDEVIQVEDVFENVSKGKLAANADLERCFGTRDRHAVLLQILLHGDLQVSDRERQYQSTRKLHEIASVVAAKTISRETKKPLPVGLIEKALREIHFAVQPNRPAKAQALEVIPLLRAQSGLDLERARLRLRIHVPSQRDAKAVKARLEPLQQGETDGTHSSSRSDSVRMKDGSAAVESESEEWLPGGALLWTVQADPGAFREIEEIVQRETNQQGIVEVASLRVLDDEDESILS | soluble
9 | AIAGCLFSVPEGGYLEVNEERSAGAYDSLSTASGIDDLHDERQPKAAYSMEDSSADLVAEDGAAVHQEVLNAHDDAWCRFDATSDATNEGAAAGGIGAPPSPLDLSLDSVVQQAYQDRVLVVFSGKAFGIALQLQMHWAALGASSAAPECVMDACVPESLLRAVHACLRAHMHACERIANRWNPDSELSAACSSAHPKKAVEVGTILYALLAEAHRLHRVTGGRFDPTCGALWRGFRATLRSSALQRPPQGRAFST | soluble
10 | AIAHGVEFAPLERQHGSQVLALLRGTLLVPLPRLHQRLEEAYERDARLGLAQVALCRLAGNAEKVVGVLLARVATRRTCCAQVYIDAVAVDAVFQGQGIGSRLLLRVLTPCLPDGLEVREVFLHTPLQATELVAFYRSCGFESDDEVIDNYYPRRWMPQAQALVLRWRPPTAAQHQHEERKGPQDADVS | soluble
11 | AIAPSDLAKKKAAKKKEAAKARGRTRKPEDGVNGDAEKPEIQENGAAEVNGVDSLAKELDEFELKKTEARAVTGVLASHPNSTDVHISSLSLTFHGQELLSDTSLELNSGRRYGLIGLNGTGKSMLLSAISHREVPIPEHIDIYHLTREMAPSEKTALQCVMEVDEERIKLEKEAERLAHEDSECEKLMELYERLEELDADKASMRASRILHGLGFTTSMQQKKLKDFSGGWRMRVALARALFLKPFMLLLDEPTNHLDLDACVWLEEELSQFKRILVLISHSQDFLNGVCTNIIHLHQRKLKYYTGNYDQYVKTREELEENQMKRFNWEQDQIAHMKNYIARFGHGSAKLARQAQSKEKTLQKMVASGLTERVVNDKTLSFYFPPCGKIPPPVIMVQNVSFRYSENTPYIYKNLEFGIDLDTRVALVGPNGAGKSTLLKLLTGELLPSDGMIRKHSHVKIGRYHQHLTEQLELDLSPLEYMMKCYPEIKEKEEMKKIIGRYGLTGKQQVSPIRNLSDGQKCRVCFAWLAWQNPHMLFLDEPTNHLDIETIDALAEAINDFEGGMMLVSHDFRLIQQVAQEIWVCEKQTITKWSRDILAYKEHLKSKIDKQMHDL | soluble
12 | AIAQNDAGEFVDLYVPRKCSASNRIIGAKDHASIQMNVAEVSWEPGRREGCDICAGKAGCPIVEEPLG | soluble
13 | AIARTDSSKMTDVESGVANFASSARAGRRNALPDIQSSAATDGTSDLPLKLEALSVKEDAKEKDEKTTQDQLEKPQNEEK | soluble
14 | AIASETISRVRQLTEKGAKMEGWDDCWKAGLTPWDRGSSLPVLCELCKEDALPKGYALVPGCGRGYDVLTLASESRVAIGLDCSEEAKKQAEQVRKFSVVDNCQLKEIEAEGF | soluble
15 | AIAVSRLEHPAGGYKKVFESCEELAEPIPAHVSGKIPAWLSGSLLRMGPGLFEIGDEPFNHLFDGQALIHKFDLKDGRVTYHRKFIRTDAYVRAMTEKRVVITELGTAAYPDPCKNIFSRFFTYFQGTEVTDNCSVNIYPIGEDFYACTETNFITKVNPDTLETIKKVDLCNYLSVNGLTAHPHIEADGTVYNIGNCFGKNMSLAYNIVKIPPLQEEKSDPLAMSKVLVQFPSSERFKPSYVHSFGMTENHFVFVETPVKINLLKFLTSWSIRGSNYMDCFESNDRMGTWFHLAAKNPGKYINNPSQ | soluble
16 | AIGEFMVSLPRMVYPQPKVLTPCRKDVLVVTPWLAPIVWEGTFNIDILNEQFRLQNTTIGLTVFAIKKYVAFLKLFLETAEKHFMVGHRVHYYVFTDQPAAVPRVTLGTGRQLSVLEVRAYKRWQDVSMRRMEMISDFCERRFLSEVDYLVCVDVDMEFRDHVGVEILTPLFGTLHPGFYGSSREAFTYERRPQSQAYIPKDEGDFYYLGGFFGGSVQEVQRLTRACHQAMMVDQANGIEAVWHDESHLNKYLLRHKPTKVLSPEYLWDQQLLGWPAVLRKLRFTAVPKNHQAVRNP | soluble
17 | AKWPHLKVGGAILVAPAEPRHSDRTESFGPIFEESLGVPAYVVSSRNDPWMSFTQAERLARAWRADVVDLGFAGHINVDSGFGPWPGGVVLRDELARRPVP | not soluble
18 | ALENLQVEASCSVCLEYLKEPVIIECGHNFCKACITRWWEDLERDFPCPVC | soluble
19 | ALSGECADEIFGGYPWFMRKEMIYANTFPWSRFVNERISLLSDDLKSINLQEYVDARYKENLNNVPVSDEDSPYAKRMRELFYLNIKWFMITLLTRKDRMSMANSLEVRVPFADYRLVEYAFNIPPEIKFLNGREKGILRKAFEGVLPQDVIERKKSPYPKTFDPRYTALVQKWLKKVVEDKTSPILDIIDLKTVNELIETGGSSYKTPWFGQLMKGPQLIAYLLQVNFWLKEY | not soluble
20 | ALTVRKHYTKEQARVTVVNKYPTHQIITELHRLAAGNVSEKAVAMPLEKLFKGKDIDLKIAEVSSFSVDKKEVALADGSTLTYDALVVGLGSVTAYFGIPGLEENSMVLKSAADANKVFQHVEDRVREYSKTKNEADATILIGGGGLTGVELVGELADIMPNLAKKYGVDHKEIKLKLVEAGPKILPVLPDDLIERATASLEKRGVEFLTGLPVTNVEGNVIDLKDGSKVVANTFVWTGGVQGNPLVGESGLEVNRGRATVNDFLQSTSHEDVFVAGDSAVYFGPDGRPYPPTAQIAWQMGELIGYNLFAYLEGKTLETFKPVNSGTLASLGRKDAVAIIGANSTPLKGLPASLMKEASNVRYLTHIK | not soluble
21 | AMSKIICLTAGHSNTDPGAVNGSDREADLAQDMRNIVASILRNDYGLTVKTDGTGKGNMPLRDAVKLIRGSDVAIEFHTNAAANKTATGIEALSTPKNKRWCQVLGKAVAKKTGWKLRGEDGFKPDNAGQHSRLAYAQAGGIVFEPFFISNDTDLALFKTTKWGICRAIADAIAMELGAAKV | soluble
22 | ANKLDSKKLTRSNGTTLEYSQITDADNATKAVETLKNSIKLEGSLVVGKTTVEIKEGTVTLKREIEKDGKVKVFLNDTAGSNKKTGKWEDSTSTLTISADSKKTKDLVFLTDGTITVQQYNTAGTSLEGSASEIKNLSELKNALK | soluble
23 | APAAVDWRARGAVTAVKDQGQCGSCWAFSAIGNVECQWFLAGHPLTNLSEQMLVSCDKTDSGCSGGLMNNAFEWIVQENNGAVYTEDSYPYASGEGISPPCTTSGHTVGATITGHVELPQDEAQIAAWLAVNGPVAVAVDASSWMTYTGGVMTSCVSEALDHGVLLVGYNDSAAVPYWIIKNSWTTQWGEEGYIRIAKGSNQCLVKEEASSAVVG | soluble
24 | AQHPPYCRNQPGKCQIPLQSLFDRATTVANYNSKLAGEMVNRFDEQYGQGINSESKVINCHTSSITTPNSKAEAINTEDKILFKLVISLLHSWDEPLHHAVTELANSKGTSPALLTKAQEIKEKAKVLVDGVEVIQKRIHPGEKNEPYPVWSEQSSLTSQDENVRRVAFYRLFHCLHRDSSKIYTYLRILKCRLTSCET | soluble
